The results in this text go back to US12630599B2, “CA2 compositions and methods for tunable regulation” (Obsidian Therapeutics, Inc., priority 2019, dated 2026).

For the assay, the system named is Nalm-6 cells. Briefly: 48 hour cytotoxicity assay, T cells co-cultured with Nalm-6 cells (NucRed), Incucyte (Example 4, Table 14). The class given is cell-based. The following applies: for Average Total Nalm6-NucRed Area after 48 hour at E:T ratio of 3:1: E:T ratio 3:1, 48 hour; for Average Total Nalm6-NucRed Area after 48 hour at E:T ratio of 10:1: E:T ratio 10:1, 48 hour. From the text:
The following constructs were transduced into T cells: OT-001356 (nucleic acid sequence SEQ ID NO: 6081 encodes two amino acid sequences, first is SEQ ID NO: 6082 (nucleic acid sequence SEQ ID NO: 6083) second is SEQ ID NO: 6084 (nucleic acid sequence SEQ ID NO: 6085)), OT-001356 (amino acid sequence provided as SEQ ID NO: 6092 and nucleic acid is SEQ ID NO: 6093) OT-001407 (amino acid sequence provided as SEQ ID NO: 6086 and nucleic acid is SEQ ID NO: 6087), OT-001895, OT-002011, OT-002111, OT-0020%, OT-02171. The cells were expanded for 10 days and utilized for cytotoxicity assays. Percentage of CAR positive cells obtained with each of the constructs was as follows: OT-001356: 45.3%; OT-001407, OT-001895: 29.4%, OT-002011: 24.3%, OT-002111: 19.6%, OT-0020%: 6.08%, OT-002171: 13.3%. For cytotoxicity assays, T cells were thawed and co-cultured with Nalm-6 cells (stably expressing NucRed) at different T cells to Nalm-6 cell culture ratios. Target cell viability was determined by measuring cellular fluorescence over time using an Incucyte assay and the results are shown in Table 14.

B1: OT-002111: construct transduced into T cells for the study of the effect of mbIL12 on CAR activity (protein)
chain: IWELKKDVYVVELDWYPDAPGEMVVLTCDTPEEDGITWTLDQSSEVLGSGKTLTIQVKEFGDAGQYTCHKGGEVLSHSLLLLHKKEDGIWSTDILKDQKEPKNKTFLRCEAKNYSGRFTCWWLTTISTDLTFSVKSSRGSSDPQGVTCGAATLSAERVRGDNKEYEYSVECQEDSACPAAEESLPIEVMVDAVHKLKYENYTSSFFIRDIIKPDPPKNLQLKPLKNSRQVEVSWEYPDTWSTPHSYFSLTFCVQVQGKSKREKKDRVFTDKTSATVICRKNASISVRAQDRYYSSSWSEWASVPCSGGGGSGGGGSGGGGSRNLPVATPDPGMFPCLHHSQNLLRAVSNMLQKARQTLEFYPCTSEEIDHEDITKDKTSTVEACLPLELTKNESCLNSRETSFITNGSCLASRKTSFMMALCLSSIYEDLKMYQVEFKTMNAKLLMDPKRQIFLDQNMLAVIDELMQALNFNSETVPQKSSLEEPDFYKTKIKLCILLHAFRIRAVTIDRVMSYLNASGSGSGSGSADFPTPSISDFEIPTSNIRRIICSTSGGFPEPHLSWLENGEELNAINTTVSQDPETELYAVSSKLDFNMTTNHSFMCLIKYGHLRVNQTFNWNTTKQEHFPDNGS
With B1, the “Average Total Nalm6-NucRed Area after 48 hour at E:T ratio of 3:1” value is 42,520 and the “Average Total Nalm6-NucRed Area after 48 hour at E:T ratio of 10:1” value is recorded as 42,899.

B2: OT-002011: construct transduced into T cells for the study of the effect of mbIL12 on CAR activity (protein)
chain: IWELKKDVYVVELDWYPDAPGEMVVLTCDTPEEDGITWTLDQSSEVLGSGKTLTIQVKEFGDAGQYTCHKGGEVLSHSLLLLHKKEDGIWSTDILKDQKEPKNKTFLRCEAKNYSGRFTCWWLTTISTDLTFSVKSSRGSSDPQGVTCGAATLSAERVRGDNKEYEYSVECQEDSACPAAEESLPIEVMVDAVHKLKYENYTSSFFIRDIIKPDPPKNLQLKPLKNSRQVEVSWEYPDTWSTPHSYFSLTFCVQVQGKSKREKKDRVFTDKTSATVICRKNASISVRAQDRYYSSSWSEWASVPCSGGGGSGGGGSGGGGSRNLPVATPDPGMFPCLHHSQNLLRAVSNMLQKARQTLEFYPCTSEEIDHEDITKDKTSTVEACLPLELTKNESCLNSRETSFITNGSCLASRKTSFMMALCLSSIYEDLKMYQVEFKTMNAKLLMDPKRQIFLDQNMLAVIDELMQALNFNSETVPQKSSLEEPDFYKTKIKLCILLHAFRIRAVTIDRVMSYLNASGSGSGSGSGSGSGSGSGSGSGSGSGSGSGSLDFACDLLPSWAITLISVNGIFVICCLTYCFAPRCRERRGS
With B2, the “Average Total Nalm6-NucRed Area after 48 hour at E:T ratio of 3:1” value is 59,465 and the “Average Total Nalm6-NucRed Area after 48 hour at E:T ratio of 10:1” value was 44,301.
